PMC11484706

Legend:
Experiment in all cases: PU-beads capture (affinity pull-down), immunoblot band quantification
Conditions in all cases: HEK293 cells transfected with the mutant; n = 3; input = 2% of protein incubated with the beads; read off a plot
[1] = target: PU-beads (PU-H71 epichaperome affinity probe)
[2] = target: HSP110 (endogenous, HEK293)
HOP (endogenous, HEK293) = target: HOP (endogenous, HEK293)
[3] = target: AHA1 (endogenous, HEK293)

response (normalized to MDA-MB-468) [1]: 0.65
response (normalized to MDA-MB-468) [2]: 0.63
response (normalized to MDA-MB-468) (HOP (endogenous, HEK293)): 0.25
response (normalized to MDA-MB-468) [3]: 0.65
Substance: mCherry WT HSP90β (HEK293) S226A; S255A
